Data reported in US7892567.

Molecular target: T1, transcription factor RFX-5, P48382
T1 chain: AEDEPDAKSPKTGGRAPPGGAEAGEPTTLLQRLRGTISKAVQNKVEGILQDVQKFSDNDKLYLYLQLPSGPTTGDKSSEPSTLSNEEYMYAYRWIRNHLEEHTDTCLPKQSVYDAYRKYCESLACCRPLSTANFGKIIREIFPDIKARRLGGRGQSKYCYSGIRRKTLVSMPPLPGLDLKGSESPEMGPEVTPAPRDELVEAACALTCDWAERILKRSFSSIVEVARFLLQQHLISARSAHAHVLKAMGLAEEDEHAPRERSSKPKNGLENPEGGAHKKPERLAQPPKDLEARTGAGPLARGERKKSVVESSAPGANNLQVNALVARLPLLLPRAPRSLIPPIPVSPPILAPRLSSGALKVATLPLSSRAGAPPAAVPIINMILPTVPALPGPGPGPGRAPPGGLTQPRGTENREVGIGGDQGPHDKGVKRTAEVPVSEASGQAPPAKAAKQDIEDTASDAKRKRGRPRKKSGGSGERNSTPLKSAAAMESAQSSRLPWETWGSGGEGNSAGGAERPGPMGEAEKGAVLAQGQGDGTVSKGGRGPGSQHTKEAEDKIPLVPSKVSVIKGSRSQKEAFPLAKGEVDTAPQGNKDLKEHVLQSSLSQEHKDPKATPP

B1: recombinant chlamydial protease-like activity factor (CPAF) from the C. trachomatis L2 genome, fusion protein with a 6-His tag at the N-terminus (protein)
chain: MGFWRTSIMKMNRIWLLLLTFSSAIHSPVRGESLVCKNALQDLSFLEHLLQVKYAPKTWKEQYLGWDLVQSSVSAQQKLRTQENPSTSFCQQVLADFIGGLNDFHAGVTFFAIESAYLPYTVQKSSDGRFYFVDIMTFSSEIRVGDELLEVDGAPVQDVLATLYGSNHKGTAAEESAALRTLFSRMASLGHKVPSGRTTLKIRRPFGTTREVRVKWRYVPEGVGDLATIAPSIRAPQLQKSMRSFFPKKDDAFHRSSSLFYSPMVPHFWAELRNHYATSGLKSGYNIGSTDGFLPVIGPVIWESEGLFRAYISSVTDGDGKSHKVGFLRIPTYSWQDMEDFDPSGPPPWEEFAKIIQVFSSNTEALIIDQTNNPGGSVLYLYALLSMLTDRPLELPKHRMILTQDEVVDALDWLTLLENVDTNVESRLALGDNMEGYTVDLQVAEYLKSFGRQVLNCWSKGDIELSTPIPLFGFEKIHPHPRVQYSKPICVLINEQDFSCADFFPVVLKDNDRALIVGTRTAGAGGFVFNVQFPNRTGIKTCSLTGSLAVREHGAFIENIGVEPHIDLPFTANDIRYKGYSEYLDKVKKLVCQLINNDGTIILAEDGSF
degradation of the transcription factor RFX-5: the biological activity of recombinant CPAF was confirmed by the ability to degrade the transcription factor, RFX-5
